According to the supplement of paper PMC9170038:

Test system: MS2 coat protein
Test: apparent KD of MS2 coat protein; designed switch direction (-1 OFF switch, 1 ON switch): -1; higher = weaker reporter binding
Conditions: Eterna round: R98
Procedure: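 RNA-MaP: designed FMN/MS2 RNA switches (84 nt design region) are transcribed on-chip within common flanks and titrated with SNAP-549-labelled MS2 coat protein (about 1-3000 nM) in 100 mM Tris pH 7.5, 80 mM KCl, 4 mM MgCl2, without or with 200 uM FMN. Median apparent KD per design; activation ratio = KD,OFF / KD,ON.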

Row | Sequence | apparent KD of MS2 coat protein (input ligand: FMN 200 uM) [nM] | apparent KD of MS2 coat protein (input ligand: none) [nM]
1 | GGUACUCAAAGAGUACCAAUACGAACAUGAGGAUCACCCAUGUAGGAUAUGCUACUCAAAGAGUAGCAGAAGGACAUGUGCCUA [OmeiMod 7 - Jieux - Exclusion NG 3] | 422 | 38.7
2 | UUGCUCAAUUGGGCAGGGACCUCACAUGAGGAUCACCCAUGUCAGGAUAUCCUAGUUUGGACGUAGGAGAAGGGACGGAGUAUC [Usanat] | 250 | 167
3 | CAGAUAAAAGUGAGGUCGUCGACAUGAGGAUCACCCAUGUACGAGGAUAUGUAAUAUACGGUAUAGCAGAAGGCGUAUGGGUGU [Edrageer] | 120 | 30.5
4 | GUCACGAAUGUAGGAUAUCGAGUGGAUAACACUCGAGAAGGACAUGAGGAUCACCCAUGUCAAAUGAAAGAUAAUAAACGUGAC [Exclsuion NG 1/3-B2] | 20.6 | 15.8
5 | UAUAUAUAGGCAGGAUAUACAUGUAUAUAUAAUUUAUUAUAUAUUAUUACAUGAGGAUCACCCAUGUAGAAGGGCCAUAUUAUA [LRO037_Exclusion NG 2] | 51.2 | 30.1
6 | AGAUGACAAAGUCAUCUCGCUCUGACAUGAGGAUCACCCAUGUAGGAUAUAUUACUCAAAGAGUAAUAGAAGGACAUGUUUCUG [Ex NG2 #64] | 65.5 | 36
